{"source": "paper PMC10388305", "about": "“Synthesis and Evaluation of a Monomethyl Auristatin E—Integrin αvβ6 Binding Peptide–Drug Conjugate for Tumor Targeted Drug Delivery” (Journal of Medicinal Chemistry, 2023)", "assay": "Biodistribution, BxPC-3 pancreatic xenograft tumor mouse model", "assay_type": "in vivo, mice", "conditions": "female, athymic nude, iv, total radioactivity, γ-counter, mean ± SD; for tissue uptake at 4 h / tissue uptake at 24 h / tissue uptake at 48 h: i.v.", "method": "All animal procedures conformed to the Animal Welfare Act and were approved by the University of California Davis Institutional Animal Care and Use Committee. All mice used for in vivo work were female athymic nude mice (6–8 weeks old) purchased from Charles River Laboratories (Wilmington, MA). For PET imaging and biodistribution studies, female athymic nude mice (6–8 weeks old) were injected subcutaneously with 3 × 10^6 DX3puro and 3 × 10^6 DX3puroβ6 cells in serum free DMEM on the right and left flank, respectively, or with 5 × 10^6 BxPC-3 cells in serum free RPMI 1640/Matrigel (1/1 v/v). Studies commenced once tumors reached a maximum diameter of ∼0.5 cm, approximately 3 weeks after inoculation. Food and water were available ad libitum. [^64Cu]PDC-1 was formulated in isotonic 0.9% saline to pH = 7.2 and administered intravenously (i.v.) via a catheter into the tail vein.\nAliquots of the formulated [^64Cu]PDC-1 in isotonic 0.9% saline (4.81–5.74 MBq, 1.7–2.1 μg, 0.26–0.31 nmol, 100 μL, pH 7.2) were injected i.v. as described above. Following the conscious uptake period, the mice were anesthetized (5% isoflurane), euthanized, and dissected (n ≥ 3/model/time point [4, 24, and 48 h]; the 48 h time point also included the imaging animals sacrificed after the PET scans). Tissues were collected, washed, weighed, and radioactivity measured in a γ-counter. Calibrated, decay-corrected radioactivity was expressed as the percentage of injected dose per gram of tissue (% ID/g). Data are reported as mean ± SD. […] For in vivo blocking studies, DOTA-2 (50 mg/kg, 205 nmol, 1.4 mg in 100 μL 0.9% saline) was injected i.v. into two animals/tumor model 10 min prior to [^64Cu]PDC-1. The animals were sacrificed after 4 h, tissues collected, washed, weighed, and radioactivity measured in a γ-counter.\nBiodistribution data of [64Cu]PDC-1 in BxPC-3 tumor model.\nTable S4. Biodistribution of [ 64Cu]PDC-1 in mice bearing a BxPC-3 xenograft tumor. Tissue uptake is\nexpressed as the mean of the percentage of injected dose per gram of tissue ± standard deviation (n = 4/\ntime point; n = 6 at 48 h); an = 3, bn = 5.", "note": "Like-named read-outs stand apart in the source and are kept apart here.", "data": [{"molecule": "CC[C@H](C)[C@@H]([C@@H](CC(=O)N1CCC[C@H]1[C@H](OC)[C@@H](C)C(=O)N[C@H](C)[C@@H](O)c1ccccc1)OC)N(C)C(=O)[C@@H](NC(=O)[C@H](C(C)C)N(C)C(=O)OCc1ccc(NC(=O)[C@H](CCCNC(N)=O)NC(=O)[C@@H](NC(=O)CCOCCOCCNC(=O)CCN2C(=O)CC(SC[C@H](NC(=O)CN3CCN(CC(=O)O)CCN(CC(=O)O)CCN(CC(=O)O)CC3)C(=O)NCCOCCOCCOCCOCCOCCOCCOCCOCCOCCOCCOCCOCCOCCOCCOCCOCCOCCOCCOCCOCCOCCOCCOCCOCCOCCOCCOCCOCCC(=O)N[C@@H](CC(N)=O)C(=O)N[C@@H](C)C(=O)N[C@H](C(=O)N3CCC[C@H]3C(=O)N[C@@H](CC(N)=O)C(=O)N[C@@H](CC(C)C)C(=O)N[C@@H](CCCNC(=N)N)C(=O)NCC(=O)N[C@@H](CC(=O)O)C(=O)N[C@@H](CC(C)C)C(=O)N[C@@H](CCC(N)=O)C(=O)N[C@H](C(=O)N[C@@H](CC(C)C)C(=O)N[C@@H](C)C(=O)N[C@@H](CCC(N)=O)C(=O)N[C@@H](CCCNC(=N)N)C(=O)N[C@H](C(=O)N[C@@H](C)C(=O)N[C@@H](CCCNC(=N)N)C(=O)N[C@H](C(=O)NCCOCCOCCOCCOCCOCCOCCOCCOCCOCCOCCOCCOCCOCCOCCOCCOCCOCCOCCOCCOCCOCCOCCOCCOCCOCCOCCOCCOCCC(N)=O)[C@@H](C)O)C(C)C)C(C)C)C(C)C)C2=O)C(C)C)cc1)C(C)C", "note": "(stereo partly drawn) [[^64Cu]PDC-1, metal not drawn]", "values": [{"measurement": "tissue uptake at 4 h", "setting": "BxPC-3 (αvβ6 +) tumor, 4 h p.i., n = 3, read-out: BxPC-3 (αvβ6 +) tumor uptake", "result": "4.61 ± 1.44", "unit": "%ID/g"}, {"measurement": "tissue uptake at 24 h", "setting": "BxPC-3 (αvβ6 +) tumor, 24 h p.i., n = 4, read-out: BxPC-3 (αvβ6 +) tumor uptake", "result": "3.73 ± 0.44", "unit": "%ID/g"}, {"measurement": "tissue uptake at 48 h", "setting": "BxPC-3 (αvβ6 +) tumor, 48 h p.i., n = 6, read-out: BxPC-3 (αvβ6 +) tumor uptake", "result": "2.93 ± 0.8", "unit": "%ID/g"}, {"measurement": "tissue uptake at 4 h", "setting": "bladder, 4 h p.i., n = 4, read-out: Bladder uptake", "result": "2.06 ± 0.2", "unit": "%ID/g"}, {"measurement": "tissue uptake at 24 h", "setting": "bladder, 24 h p.i., n = 4, read-out: Bladder uptake", "result": "1.84 ± 0.45", "unit": "%ID/g"}, {"measurement": "tissue uptake at 48 h", "setting": "bladder, 48 h p.i., n = 6, read-out: Bladder uptake", "result": "1.28 ± 0.46", "unit": "%ID/g"}, {"measurement": "tissue uptake at 4 h", "setting": "blood, 4 h p.i., n = 4, read-out: Blood uptake", "result": "0.13 ± 0.02", "unit": "%ID/g"}, {"measurement": "tissue uptake at 24 h", "setting": "blood, 24 h p.i., n = 4, read-out: Blood uptake", "result": "0.31 ± 0.04", "unit": "%ID/g"}, {"measurement": "tissue uptake at 48 h", "setting": "blood, 48 h p.i., n = 6, read-out: Blood uptake", "result": "0.28 ± 0.04", "unit": "%ID/g"}, {"measurement": "tissue uptake at 4 h", "setting": "bone, 4 h p.i., n = 4, read-out: Bone uptake", "result": "0.36 ± 0.1", "unit": "%ID/g"}, {"measurement": "tissue uptake at 24 h", "setting": "bone, 24 h p.i., n = 4, read-out: Bone uptake", "result": "0.43 ± 0.03", "unit": "%ID/g"}, {"measurement": "tissue uptake at 48 h", "setting": "bone, 48 h p.i., n = 6, read-out: Bone uptake", "result": "0.23 ± 0.11", "unit": "%ID/g"}, {"measurement": "tissue uptake at 4 h", "setting": "brain, 4 h p.i., n = 4, read-out: Brain uptake", "result": 0.04, "unit": "%ID/g"}, {"measurement": "tissue uptake at 24 h", "setting": "brain, 24 h p.i., n = 4, read-out: Brain uptake", "result": "0.08 ± 0.01", "unit": "%ID/g"}, {"measurement": "tissue uptake at 48 h", "setting": "brain, 48 h p.i., n = 6, read-out: Brain uptake", "result": "0.08 ± 0.03", "unit": "%ID/g"}, {"measurement": "tissue uptake at 4 h", "setting": "gall bladder, 4 h p.i., n = 4, read-out: Gall bladder uptake", "result": "3.99 ± 1.49", "unit": "%ID/g"}, {"measurement": "tissue uptake at 24 h", "setting": "gall bladder, 24 h p.i., n = 4, read-out: Gall bladder uptake", "result": "2.88 ± 1.31", "unit": "%ID/g"}, {"measurement": "tissue uptake at 48 h", "setting": "gall bladder, 48 h p.i., n = 6, read-out: Gall bladder uptake", "result": "1.46 ± 1.09", "unit": "%ID/g"}, {"measurement": "tissue uptake at 4 h", "setting": "heart, 4 h p.i., n = 4, read-out: Heart uptake", "result": "0.79 ± 0.11", "unit": "%ID/g"}, {"measurement": "tissue uptake at 24 h", "setting": "heart, 24 h p.i., n = 4, read-out: Heart uptake", "result": "0.89 ± 0.13", "unit": "%ID/g"}, {"measurement": "tissue uptake at 48 h", "setting": "heart, 48 h p.i., n = 6, read-out: Heart uptake", "result": "0.79 ± 0.07", "unit": "%ID/g"}, {"measurement": "tissue uptake at 4 h", "setting": "kidney, 4 h p.i., n = 4, read-out: Kidney uptake", "result": "50.4 ± 3.08", "unit": "%ID/g"}, {"measurement": "tissue uptake at 24 h", "setting": "kidney, 24 h p.i., n = 4, read-out: Kidney uptake", "result": "41.6 ± 11.8", "unit": "%ID/g"}, {"measurement": "tissue uptake at 48 h", "setting": "kidney, 48 h p.i., n = 6, read-out: Kidney uptake", "result": "21.5 ± 7.01", "unit": "%ID/g"}, {"measurement": "tissue uptake at 4 h", "setting": "large intestines, 4 h p.i., n = 4, read-out: Lg. Intestines uptake", "result": "5.49 ± 0.47", "unit": "%ID/g"}, {"measurement": "tissue uptake at 24 h", "setting": "large intestines, 24 h p.i., n = 4, read-out: Lg. Intestines uptake", "result": "5.21 ± 0.82", "unit": "%ID/g"}, {"measurement": "tissue uptake at 48 h", "setting": "large intestines, 48 h p.i., n = 6, read-out: Lg. Intestines uptake", "result": "2.78 ± 1.08", "unit": "%ID/g"}, {"measurement": "tissue uptake at 4 h", "setting": "liver, 4 h p.i., n = 4, read-out: Liver uptake", "result": "1.51 ± 0.29", "unit": "%ID/g"}, {"measurement": "tissue uptake at 24 h", "setting": "liver, 24 h p.i., n = 4, read-out: Liver uptake", "result": "1.95 ± 0.33", "unit": "%ID/g"}, {"measurement": "tissue uptake at 48 h", "setting": "liver, 48 h p.i., n = 6, read-out: Liver uptake", "result": "1.8 ± 0.3", "unit": "%ID/g"}, {"measurement": "tissue uptake at 4 h", "setting": "lung, 4 h p.i., n = 4, read-out: Lung uptake", "result": "2.44 ± 0.3", "unit": "%ID/g"}, {"measurement": "tissue uptake at 24 h", "setting": "lung, 24 h p.i., n = 4, read-out: Lung uptake", "result": "2.3 ± 0.04", "unit": "%ID/g"}, {"measurement": "tissue uptake at 48 h", "setting": "lung, 48 h p.i., n = 6, read-out: Lung uptake", "result": "1.67 ± 0.42", "unit": "%ID/g"}, {"measurement": "tissue uptake at 4 h", "setting": "muscle, 4 h p.i., n = 4, read-out: Muscle uptake", "result": "0.8 ± 0.09", "unit": "%ID/g"}, {"measurement": "tissue uptake at 24 h", "setting": "muscle, 24 h p.i., n = 4, read-out: Muscle uptake", "result": "0.68 ± 0.06", "unit": "%ID/g"}, {"measurement": "tissue uptake at 48 h", "setting": "muscle, 48 h p.i., n = 6, read-out: Muscle uptake", "result": "0.44 ± 0.09", "unit": "%ID/g"}, {"measurement": "tissue uptake at 4 h", "setting": "pancreas, 4 h p.i., n = 4, read-out: Pancreas uptake", "result": "0.32 ± 0.09", "unit": "%ID/g"}, {"measurement": "tissue uptake at 24 h", "setting": "pancreas, 24 h p.i., n = 4, read-out: Pancreas uptake", "result": "0.46 ± 0.04", "unit": "%ID/g"}, {"measurement": "tissue uptake at 48 h", "setting": "pancreas, 48 h p.i., n = 6, read-out: Pancreas uptake", "result": "0.47 ± 0.06", "unit": "%ID/g"}, {"measurement": "tissue uptake at 4 h", "setting": "skin, 4 h p.i., n = 4, read-out: Skin uptake", "result": "1.92 ± 0.5", "unit": "%ID/g"}, {"measurement": "tissue uptake at 24 h", "setting": "skin, 24 h p.i., n = 4, read-out: Skin uptake", "result": "1.41 ± 0.25", "unit": "%ID/g"}, {"measurement": "tissue uptake at 48 h", "setting": "skin, 48 h p.i., n = 6, read-out: Skin uptake", "result": "0.79 ± 0.19", "unit": "%ID/g"}, {"measurement": "tissue uptake at 4 h", "setting": "small intestines, 4 h p.i., n = 4, read-out: Sm. Intestines uptake", "result": "3.98 ± 0.54", "unit": "%ID/g"}, {"measurement": "tissue uptake at 24 h", "setting": "small intestines, 24 h p.i., n = 4, read-out: Sm. Intestines uptake", "result": "2.85 ± 0.31", "unit": "%ID/g"}, {"measurement": "tissue uptake at 48 h", "setting": "small intestines, 48 h p.i., n = 6, read-out: Sm. Intestines uptake", "result": "1.5 ± 0.23", "unit": "%ID/g"}, {"measurement": "tissue uptake at 4 h", "setting": "spleen, 4 h p.i., n = 4, read-out: Spleen uptake", "result": "0.19 ± 0.02", "unit": "%ID/g"}, {"measurement": "tissue uptake at 24 h", "setting": "spleen, 24 h p.i., n = 4, read-out: Spleen uptake", "result": "0.52 ± 0.09", "unit": "%ID/g"}, {"measurement": "tissue uptake at 48 h", "setting": "spleen, 48 h p.i., n = 6, read-out: Spleen uptake", "result": "0.43 ± 0.08", "unit": "%ID/g"}, {"measurement": "tissue uptake at 4 h", "setting": "stomach, 4 h p.i., n = 4, read-out: Stomach uptake", "result": "8.73 ± 0.66", "unit": "%ID/g"}, {"measurement": "tissue uptake at 24 h", "setting": "stomach, 24 h p.i., n = 4, read-out: Stomach uptake", "result": "5.94 ± 0.9", "unit": "%ID/g"}, {"measurement": "tissue uptake at 48 h", "setting": "stomach, 48 h p.i., n = 6, read-out: Stomach uptake", "result": "2.78 ± 0.79", "unit": "%ID/g"}, {"measurement": "excreta dose per gram or mL at 4 h", "setting": "urine, 4 h p.i., n = 4", "result": "15.3 ± 1.2", "unit": "%ID/g"}, {"measurement": "excreta dose per gram or mL at 24 h", "setting": "urine, 24 h p.i., n = 4", "result": "4.81 ± 0.84", "unit": "%ID/g"}, {"measurement": "excreta dose per gram or mL at 48 h", "setting": "urine, 48 h p.i., n = 5", "result": "2.04 ± 0.97", "unit": "%ID/g"}]}]}
